Experimental data as given in patent publication US20100330094A1 (NOVIMMUNE S A, published 2010).

Assays:
[1] = biological target: T1, recombinant human IP-10 (hIP-10) (human, UniProt P02778 22-98); experiment: SPR (Biacore 2000): IgG1 captured on anti-human IgG, IP-10 in solution, 25 C, 1:1 Langmuir fit
T1 construct: mature; Commercial recombinant chemokine (Peprotech); also called rhIP-10; CXCL10
T1 sequence (looked up): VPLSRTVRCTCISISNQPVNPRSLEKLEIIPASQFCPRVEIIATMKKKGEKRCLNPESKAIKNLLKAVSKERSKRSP
Experimental: (§1) 200RU (response unit) of a goat anti-human polyclonal IgG (ahIgG; Biacore AB, Uppsala, Sweden) were immobilized by EDC/NHS chemistry on a C1 Biacore chip. […] The surface was regenerated after each cycle by injection of 10 mM glycine pH=1.5 at 30 μL/min, for 30s followed by 1 min. of stabilization time in HBS-EP buffer.
(§2) Binding was measured by passing either hIP-10 (Peprotech, Rocky Hill N.J.) or a NusA-hIP-10 fusion protein at the following concentrations: 34.7 nM, 11.6 nM, 3.85 nM, 1.28 nM, 0.428 nM, 0.142 nM and 0 nM. All solutions were diluted in HBS-EP buffer (Biacore AB, Uppsala, Sweden). Injection was performed at 50 μl/min for 3 min. followed by 12 min. of dissociation time and the temperature was set at 25° C. […] Very similar values were obtained using rhIP-10 or the NusA-hIP-10 fusion, but better response signals were obtained with the fusion protein due to its larger size that induces a better response on the Biacore.

[2] = biological target: T1, recombinant human IP-10 (hIP-10); experiment: cell-based or functional assay
[3] = biological target: T2, NusA-rat IP-10 fusion protein (rat, UniProt P48973 22-98); experiment: capture ELISA: NI-0801 coated, concentration range of NusA fusion protein, revealed with anti-NusA antibody
T2 construct: mature; not shown: NusA fusion partner encoded by expression plasmid pET43 (Novagen); vector-encoded linker with Factor X protease cleavage site
T2 sequence (looked up): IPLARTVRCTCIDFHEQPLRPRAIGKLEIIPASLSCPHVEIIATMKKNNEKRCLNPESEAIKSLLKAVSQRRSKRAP
Text: (§3) Briefly, IP-10 cloned from cDNA isolated from mouse, rat, rabbit and cynomolgus as well as a panel of human chemokines was expressed and purified as described in Example 1.

[4] = biological target: T3, NusA-mouse IP-10 fusion protein (mouse, UniProt P17515 22-98); experiment: as above
T3 construct: mature; not shown: NusA fusion partner encoded by expression plasmid pET43 (Novagen); vector-encoded linker with Factor X protease cleavage site
T3 sequence (looked up): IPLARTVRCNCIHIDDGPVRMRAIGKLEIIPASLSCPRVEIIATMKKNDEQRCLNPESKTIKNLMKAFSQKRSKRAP
Text: as §3

[5] = biological target: T4, NusA-hIP-10 fusion protein (human, UniProt P02778 22-98); experiment: as above
T4 construct: mature; not shown: NusA fusion partner encoded by expression plasmid pET43 (Novagen); vector-encoded linker with Factor X protease cleavage site at the C-terminus of NusA; AviTag biotinylation site (Avidity) at the C-terminus of the chemokine
T4 sequence (looked up): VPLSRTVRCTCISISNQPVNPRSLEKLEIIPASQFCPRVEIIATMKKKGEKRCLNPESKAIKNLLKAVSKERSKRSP
Text: as §3

[6] = biological target: T5, NusA-cynomolgus IP-10 fusion protein (cynomolgus, UniProt A0A2K5WKN6 22-98); experiment: as above
T5 construct: mature; not shown: NusA fusion partner encoded by expression plasmid pET43 (Novagen); vector-encoded linker with Factor X protease cleavage site
T5 sequence: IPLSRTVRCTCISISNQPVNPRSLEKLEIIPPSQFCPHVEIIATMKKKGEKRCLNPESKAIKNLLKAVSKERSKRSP
Text: as §3

[7] = biological target: T1, recombinant human IP-10 (hIP-10); experiment: SPR (Biacore 2000)
Experimental: as §1, §2

[8] = biological target: T6, native human IP-10 (hIP-10) (human, UniProt P02778 22-98); experiment: cell-based or functional assay
T6 sequence (looked up): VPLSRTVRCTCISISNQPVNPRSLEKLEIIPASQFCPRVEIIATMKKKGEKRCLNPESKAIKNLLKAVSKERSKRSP

[9] = biological target: T7, hIP-10 immobilized on glycosaminoglycan (FITC-labeled heparin) (human, UniProt P02778 22-98); experiment: capture assay: IgG captured on coated anti-human Fc, FITC-heparin pre-incubated with hIP-10 added, revealed with HRP-coupled anti-FITC Fab
T7 construct: mature; also called hIP-10 on GAG; hIP-10 immobilized on GAG
T7 sequence (looked up): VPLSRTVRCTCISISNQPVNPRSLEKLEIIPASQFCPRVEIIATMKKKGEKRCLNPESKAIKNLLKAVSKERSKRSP
Experimental: As with many chemokines, hIP-10 is able to oligomerize and bind to glycosaminoglycans (GAG) expressed at surface of cells such as endothelial cells. In order to make sure that the antibodies were able to bind to hIP-10 in this context, they were tested in the following assay. Maxisorb 96 well plates were coated with anti-human Fc (Jackson, West Grove, Pa.) as capturing reagent for the human IgG to be tested. FITC-labeled heparin (Sigma, St. Louis, Mo.) was used as a prototypic GAG and was incubated with hIP-10 before addition to the captured anti-hIP10 antibodies. […] As shown in FIG. 4 some antibodies were able to bind hIP-10 when bound to GAG whereas others were unable to do so probably because their epitope on hIP-10 was no longer accessible within the oligomeric structure.

| Binder | Calcium flux IC50 (nM); 10 nM rhIP-10 [2] | Chemotaxis IC50 (nM); 0.2 nM rhIP-10 [2] | Chemotaxis IC50 (nM); native hIP-10 at 0.6 nM [8] | Chemotaxis IC50 (nM); 1 nM rhIP-10 [2] | further results |
| --- | --- | --- | --- | --- | --- |
| NI-0801, IgG1 format (antibody, V domains shown, Claims 7 and 21 swap the heavy and light chain numbers) VH: QVQLVESGGGVVQPGRSLRLSCAASGFTFSNSGIHWVRQAPGKGLEWVAVISYDGSNKYYADSVKGRFTISRDNSKNTLYLQMNSLRAEDTAVYYCARLRDNAEYTDYWGQGTLVTVSS VL: NFMLTQPHSVSESPGKTVTISCTGSGGSIASNYVQWYQQRPGSSPTTVIYEDNQRPSGVPDRFSGSIDSSSNSASLTISGLKTEDEADYYCQSYDPLPVWVFGGGTKLTVLG | 6.3 nM | 0.24 nM | 0.58 nM | – | Kd [1]: 0.109 nM; binding result [3]: no binding (tested: about 2e-7 M); binding result [4]: no binding (tested: about 2e-7 M); EC50 (read off the curve) [5]: ~3 nM; EC50 (read off the curve) [6]: ~1 nM; fold improvement of affinity over CC21R3P1_F1 [7]: 90 fold |
| CF1H1R3P3_G11, IgG1 format (antibody, V domains shown) VH: QVQLVESGGGVVQPGRSLRLSCAASGFTFSNSGIHWVRQAPGKGLEWVAVISYDGSNKFYADSVKGRFTISRDNSKNTLYLQMNSLRAEDTAVYYCAKLRDNGEYLDYWGQGTLVTVSS VL: NFMLTQPHSVSESPGKTVTISCTGSGGSIDRNYVQWYQQRPGSSPTTVIYEDNQRPSGVPDRFSGSIDSSSNSASLTISGLKTEDEADYYCQSYDPLPVWVFGGGTKLTVL | 7.9 nM | 0.2 nM | 1.9 nM | – | – |
| CF1A11R3P3_F3, IgG1 format (antibody, V domains shown) VH: QVQLVESGGGVVQPGRSLRLSCAASGFTFSNSGIHWVRQAPGKGLEWVAVISYDGSNKFYADSVKGRFTISRDNSKNTLYLQMNSLRAEDTAVYYCAKLRDNGEYLDYWGQGTLVTVSS VL: NFMLTQPHSVSESPGKTVTISCTGSGGSIDRNYVQWYQQRPGSAPITVIYEDNQRPSGVPDRFSGSIDSSSNSASLTISGLRTDDEADYYCQSYDSINLWVFGGGTKVTVL | 5.9 nM | 0.69 nM | 1.7 nM | – | – |
| CF1H1R3P4_B5, IgG1 format (antibody, V domains shown) VH: QVQLVESGGGVVQPGRSLRLSCAASGFTFSNSGIHWVRQAPGKGLEWVAVISYDGSNKFYADSVKGRFTISRDNSKNTLYLQMNSLRAEDTAVYYCAKLRDNGEYLDYWGQGTLVTVSS VL: NFMLTQPHSVSESPGKTVTISCTGSGGSIDRNYVQWYQQRPGSSPTTVIYEDNQRPSGVPDRFSGSIDSSSNSASLTISGLKTEDEADYYCQSYVETPEWVFGGGTKLTVL | 4.7 nM | 0.42 nM | 1.2 nM | – | – |
| CF1N1R3P4_C7, IgG1 format (antibody, V domains shown) VH: QVQLVESGGGVVQPGRSLRLSCAASGFTFSNSGIHWVRQAPGKGLEWVAVISYDGSNKFYADSVKGRFTISRDNSKNTLYLQMNSLRAEDTAVYYCAKLRDNAEYTDYWGQGTLVTVSS VL: NFMLTQPHSVSESPGKTVTISCTGSGGSIDRNYVQWYQQRPGSSPTTVIYEDNQRPSGVPDRFSGSIDSSSNSASLTISGLKTEDEADYYCQSYDPLPVWVFGGGTKLTVL | 4.1 nM | 0.19 nM | 0.64 nM | – | – |
| CC21R3P1_F1, IgG1 format (antibody, V domains shown) VH: QVQLVESGGGVVQPGRSHTLSCAASGFAFKNSGIHWVRQAPGKGLEWVAVISYDGSNKFYADSVKGRFTISRDNSQNTVYLQMTDLRPDDTAVYYCARDGSESEYLDYWGKGTLVTVSS VL: NFMLTQPHSVSESPGKTVTISCTGSGGSIDRNYVQWYQQRPGSAPITVIYEDNQRPSGVPDRFSGSIDSSSNSASLTISGLRTDDEADYYCQSYDSINLWVFGGGTKVTVL | 9.8 nM | – | 11 nM | 3 nM | Kd [1]: 9.2 nM |
| CB2R2P4_C3, IgG1 format (antibody, V domains shown) VH: QVTLRESGPALVKPTQTLTLTCTFSGFSLTTSGMSVIWIRQPPGKALEWLARIDSDDEKHYNTSLKTRLAISKDTSKNQVVLTMTNMDPVDTGTYYCARLRAGSGPYVFDSWGQGTTVTVSS VL: QSVLTQPPSASGTPGQRVTISCSGSSSNIGSNTVNWYQRLPGAAPQLLIYNNDQRPSGIPDRFSGSKSGTSGSLVISGLQSEDEADYYCASWDDSLNGRVFGGGTKLTVL | > 200 nM | – | – | 33 nM | – |
| CC21R3P4_F4, IgG1 format (antibody, V domains shown) VH: QVQLVESGGGVAHSGKSLRLSCAASGFTFSNYGMHWVRQAPGKGLEWLAVISYDGSNRYYADSVKGRFTISRDNSNNTLNLQMSSLRAEDTALYYCAKDAGGPLDYWGRGTLVTVSS VL: SYVLTQPPSVSVAPGQMARITCGGNNIGDKSVQWYQQRPGQAPLLVVYDDSDRPSGIPERFSGSYSRNTATLTISRVEAGDEADYYCQVWDSSSDHPEVVFGGGTKLTVL | > 200 nM | – | – | 157 nM | – |
| CC21R3P1_E7, IgG1 format (antibody, V domains shown) VH: QLVESGGGVVQPGRSLRLSCAASGFTFSTYGMHWVRQAPGKGLEWVAVISYDGGTKYYADSVKGRFTISRDNSMKTLYLQMNSLRTEDTAVYYCAKDLGDLPPGLDYWGQGTMVTVSS VL: not shown | > 200 nM | – | – | 56 nM | – |
| CC21R3P1_A2, IgG1 format (antibody, V domains shown) VH: QLVESGGGLIQPGGSLRLSCAASGFSVSDTYMNWVRQAPGKGLEWVSSIYSDDSTYYADSVKGRFTISRDNSKNTLFLQINSLRAEDTAVYYCARDKEYVTSTGGAYYYFYYMDVWGQGTLVTVSS VL: not shown | 9.8 nM | – | 6.2 nM | 3.2 nM | binding result [9]: no binding |
| CB21R3P6_G7, IgG1 format (antibody, V domains shown) VH: QVQLVQSGAEVKKPGSSVTVSCKASGGTFSSFSITWLRQAPGQGLEWMGEITPMFGIANYAQKFQGRVTISADESTSTAYMELSGLTSEDTAMYYCARDGRFDVSDLLTDKPKVTINYNGMDVWGQGTLVTVSS VL: QSVLTQPPSASGTPGQRVTISCSGSSSNIGSNTVNWYQRLPGAAPQLLIYNNDQRPSGIPDRFSGSKSGTSGSLVISGLQSEDEADYYCASWDDSLNGRVFGGGTKLTVL | 6.2 nM | – | 7.8 nM | 8.8 nM | binding result [9]: no binding |
